Target: T1, Rad50-R1201A (Saccharomyces cerevisiae, UniProt P12753 1-1312, R1201A)
T1 sequence: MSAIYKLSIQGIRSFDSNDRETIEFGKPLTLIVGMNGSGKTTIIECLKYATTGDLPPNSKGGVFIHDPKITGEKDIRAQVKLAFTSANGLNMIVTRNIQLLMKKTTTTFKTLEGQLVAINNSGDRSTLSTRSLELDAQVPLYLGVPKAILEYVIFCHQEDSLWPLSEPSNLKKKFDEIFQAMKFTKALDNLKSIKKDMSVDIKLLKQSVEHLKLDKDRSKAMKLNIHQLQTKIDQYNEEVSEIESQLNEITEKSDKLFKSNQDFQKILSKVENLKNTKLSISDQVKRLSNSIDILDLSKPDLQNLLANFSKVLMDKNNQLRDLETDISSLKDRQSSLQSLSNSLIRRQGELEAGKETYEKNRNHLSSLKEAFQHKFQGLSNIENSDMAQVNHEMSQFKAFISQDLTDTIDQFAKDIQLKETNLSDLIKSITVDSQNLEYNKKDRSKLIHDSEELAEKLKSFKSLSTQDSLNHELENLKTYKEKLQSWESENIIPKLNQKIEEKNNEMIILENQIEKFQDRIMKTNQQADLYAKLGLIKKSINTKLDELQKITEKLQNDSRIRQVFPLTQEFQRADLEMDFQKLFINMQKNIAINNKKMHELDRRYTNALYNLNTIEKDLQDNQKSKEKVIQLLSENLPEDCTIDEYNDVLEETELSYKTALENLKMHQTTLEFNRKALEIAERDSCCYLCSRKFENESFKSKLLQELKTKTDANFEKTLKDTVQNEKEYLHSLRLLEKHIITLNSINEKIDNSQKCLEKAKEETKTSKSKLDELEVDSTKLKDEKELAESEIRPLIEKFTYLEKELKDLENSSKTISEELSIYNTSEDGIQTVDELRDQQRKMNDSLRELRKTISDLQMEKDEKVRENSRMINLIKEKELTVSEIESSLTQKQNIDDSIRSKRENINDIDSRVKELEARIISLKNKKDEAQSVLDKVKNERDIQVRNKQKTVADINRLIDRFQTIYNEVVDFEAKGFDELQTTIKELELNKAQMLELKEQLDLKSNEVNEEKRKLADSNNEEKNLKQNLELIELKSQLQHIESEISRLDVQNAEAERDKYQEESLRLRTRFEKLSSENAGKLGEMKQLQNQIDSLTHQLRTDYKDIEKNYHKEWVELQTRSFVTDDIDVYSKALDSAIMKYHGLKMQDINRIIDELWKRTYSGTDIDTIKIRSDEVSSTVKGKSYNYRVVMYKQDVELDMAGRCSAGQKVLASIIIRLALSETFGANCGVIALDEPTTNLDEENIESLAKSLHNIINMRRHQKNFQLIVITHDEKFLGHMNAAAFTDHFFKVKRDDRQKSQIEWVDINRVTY
Assay: EMSA

B1: 83-mer dsDNA (EMSA) (dsDNA)
DNA 1: TTGATAAGAGGTCATTTTTGCGGATGGCTTAGAGCTTAATTGCTGAATCTGGTGCTGTAGCTCAACATGTTTTAAATATGCAA
DNA 2: TTGCATATTTAAAACATGTTGAGCTACAGCACCAGATTCAGCAATTAAGCTCTAAGCCATCCGCAAAAATGACCTCTTATCAA
  binding result: binds

Reference: paper PMC12343972 (Nature Communications, 2025)
